Test [1] deals with His-tagged human tenascin-C (human) (UniProt P24821). The test is described as follows: pull-down from HEK293 conditioned medium on tenascin-C-Sepharose 4B, nanoLC-MSMS; listed as background protein (control column score 833).
Test [2] has as its target horse fibronectin coupled to CNBr-activated Sepharose 4B (horse) (UniProt Q28377). The test can be described thus: pull-down from HEK293 conditioned medium on horse fibronectin-Sepharose 4B, nanoLC-MSMS; listed as background protein (control column score 833).
For test [3] the target is unchanged. The test is described as follows: pull-down from HEK293 conditioned medium on horse fibronectin-Sepharose 4B, nanoLC-MSMS; listed as background protein (control column count 32).
Test [4] deals with His-tagged human tenascin-C (human) (UniProt P24821). The test is described as follows: pull-down from HEK293 conditioned medium on tenascin-C-Sepharose 4B, nanoLC-MSMS; listed as background protein (control column count 32).
The target in test [5] is horse fibronectin coupled to CNBr-activated Sepharose 4B (horse) (UniProt Q28377). The test can be described thus: pull-down from HEK293 conditioned medium on horse fibronectin-Sepharose 4B, nanoLC-MSMS.
Chain of horse fibronectin coupled to CNBr-activated Sepharose 4B (horse) (Q28377 32-2477 limits assumed): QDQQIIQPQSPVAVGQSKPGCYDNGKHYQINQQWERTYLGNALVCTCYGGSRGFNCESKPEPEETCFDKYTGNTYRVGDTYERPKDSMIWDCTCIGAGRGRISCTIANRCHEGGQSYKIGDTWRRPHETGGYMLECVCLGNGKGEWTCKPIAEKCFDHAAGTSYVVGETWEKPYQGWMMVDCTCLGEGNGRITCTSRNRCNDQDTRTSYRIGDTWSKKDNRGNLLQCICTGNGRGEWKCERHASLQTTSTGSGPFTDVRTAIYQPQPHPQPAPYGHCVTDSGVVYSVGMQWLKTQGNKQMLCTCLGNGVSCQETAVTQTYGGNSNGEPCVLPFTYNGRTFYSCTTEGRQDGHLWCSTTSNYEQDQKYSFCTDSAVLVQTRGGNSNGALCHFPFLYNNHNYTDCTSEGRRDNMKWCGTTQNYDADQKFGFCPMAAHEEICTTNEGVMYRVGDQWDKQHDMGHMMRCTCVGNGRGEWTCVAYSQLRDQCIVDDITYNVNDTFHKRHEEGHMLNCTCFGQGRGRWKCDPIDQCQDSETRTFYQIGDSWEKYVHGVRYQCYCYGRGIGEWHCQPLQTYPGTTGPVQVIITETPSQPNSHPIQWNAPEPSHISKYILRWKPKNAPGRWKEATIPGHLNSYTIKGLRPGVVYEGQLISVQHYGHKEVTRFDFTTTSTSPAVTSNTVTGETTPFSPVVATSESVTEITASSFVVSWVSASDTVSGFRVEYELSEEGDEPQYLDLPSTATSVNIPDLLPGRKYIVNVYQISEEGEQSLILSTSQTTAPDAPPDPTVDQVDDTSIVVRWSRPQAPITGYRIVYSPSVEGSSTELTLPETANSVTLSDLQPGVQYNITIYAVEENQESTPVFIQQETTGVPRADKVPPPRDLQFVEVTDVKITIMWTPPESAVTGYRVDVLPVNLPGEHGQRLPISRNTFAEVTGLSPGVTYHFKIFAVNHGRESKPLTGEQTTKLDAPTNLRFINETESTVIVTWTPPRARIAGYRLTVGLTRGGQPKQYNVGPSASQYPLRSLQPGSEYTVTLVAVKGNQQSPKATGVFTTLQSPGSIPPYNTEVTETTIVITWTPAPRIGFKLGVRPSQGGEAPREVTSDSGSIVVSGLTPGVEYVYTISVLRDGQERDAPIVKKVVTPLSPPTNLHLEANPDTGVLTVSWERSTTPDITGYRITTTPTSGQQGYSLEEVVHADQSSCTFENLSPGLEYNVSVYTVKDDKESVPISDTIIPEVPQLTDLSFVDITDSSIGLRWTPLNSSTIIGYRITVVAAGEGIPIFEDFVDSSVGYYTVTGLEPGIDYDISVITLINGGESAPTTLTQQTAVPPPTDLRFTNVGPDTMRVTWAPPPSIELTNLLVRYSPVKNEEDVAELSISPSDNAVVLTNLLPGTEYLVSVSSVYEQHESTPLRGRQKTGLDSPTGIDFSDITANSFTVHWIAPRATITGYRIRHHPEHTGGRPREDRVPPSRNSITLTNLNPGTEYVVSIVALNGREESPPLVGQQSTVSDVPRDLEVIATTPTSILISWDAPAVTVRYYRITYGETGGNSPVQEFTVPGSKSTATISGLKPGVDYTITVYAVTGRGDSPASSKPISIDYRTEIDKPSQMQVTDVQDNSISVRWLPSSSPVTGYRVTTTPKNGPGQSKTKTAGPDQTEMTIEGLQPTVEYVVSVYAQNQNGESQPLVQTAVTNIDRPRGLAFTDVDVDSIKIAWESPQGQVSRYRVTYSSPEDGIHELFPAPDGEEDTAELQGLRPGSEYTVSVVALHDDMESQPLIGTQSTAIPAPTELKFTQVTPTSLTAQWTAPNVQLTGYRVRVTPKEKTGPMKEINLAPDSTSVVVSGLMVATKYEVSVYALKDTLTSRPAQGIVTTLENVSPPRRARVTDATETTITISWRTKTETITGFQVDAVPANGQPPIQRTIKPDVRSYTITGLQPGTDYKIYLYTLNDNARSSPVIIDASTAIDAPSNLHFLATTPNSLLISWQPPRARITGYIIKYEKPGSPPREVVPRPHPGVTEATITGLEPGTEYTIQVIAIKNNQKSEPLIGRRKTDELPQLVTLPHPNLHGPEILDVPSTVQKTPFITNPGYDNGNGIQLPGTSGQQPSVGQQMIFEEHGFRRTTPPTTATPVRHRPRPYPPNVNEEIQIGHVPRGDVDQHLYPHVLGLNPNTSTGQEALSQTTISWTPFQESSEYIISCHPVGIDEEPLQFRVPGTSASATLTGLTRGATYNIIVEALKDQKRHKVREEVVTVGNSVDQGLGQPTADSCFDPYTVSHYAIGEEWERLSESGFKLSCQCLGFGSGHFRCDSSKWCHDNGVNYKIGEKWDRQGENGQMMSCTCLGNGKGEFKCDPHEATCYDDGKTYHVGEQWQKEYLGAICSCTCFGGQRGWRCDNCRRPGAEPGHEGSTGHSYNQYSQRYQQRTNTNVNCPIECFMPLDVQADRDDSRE
Test [6] concerns the target His-tagged human tenascin-C (human) (UniProt P24821). The test is described as follows: pull-down on tenascin-C-Sepharose 4B, spectral counting normalized to background proteins.
For test [7] the target is unchanged. The test can be described thus: pull-down from HEK293 conditioned medium on tenascin-C-Sepharose 4B, nanoLC-MSMS.
The target is the same in test [8]. The test is described as follows: pull-down on tenascin-C-Sepharose 4B, multiple reaction monitoring.
For test [9] the target is unchanged. The test is described as follows: pull-down from HEK293 conditioned medium on tenascin-C-Sepharose 4B, nanoLC-MSMS; listed as background protein (control column count 44).
The target in test [10] is horse fibronectin coupled to CNBr-activated Sepharose 4B (horse) (UniProt Q28377). The test is described as follows: pull-down from HEK293 conditioned medium on horse fibronectin-Sepharose 4B, nanoLC-MSMS; listed as background protein (control column score 720).
Test [11] has as its target His-tagged human tenascin-C (human) (UniProt P24821). The test can be described thus: pull-down from HEK293 conditioned medium on tenascin-C-Sepharose 4B, nanoLC-MSMS; listed as background protein (control column score 720).
Test [12] addresses horse fibronectin coupled to CNBr-activated Sepharose 4B (horse) (UniProt Q28377). The test can be described thus: pull-down from HEK293 conditioned medium on horse fibronectin-Sepharose 4B, nanoLC-MSMS; listed as background protein (control column count 44).

Chain of Fibronectin from HEK293 conditioned medium, P02751 32-2477 (P02751 32-2477 limits assumed): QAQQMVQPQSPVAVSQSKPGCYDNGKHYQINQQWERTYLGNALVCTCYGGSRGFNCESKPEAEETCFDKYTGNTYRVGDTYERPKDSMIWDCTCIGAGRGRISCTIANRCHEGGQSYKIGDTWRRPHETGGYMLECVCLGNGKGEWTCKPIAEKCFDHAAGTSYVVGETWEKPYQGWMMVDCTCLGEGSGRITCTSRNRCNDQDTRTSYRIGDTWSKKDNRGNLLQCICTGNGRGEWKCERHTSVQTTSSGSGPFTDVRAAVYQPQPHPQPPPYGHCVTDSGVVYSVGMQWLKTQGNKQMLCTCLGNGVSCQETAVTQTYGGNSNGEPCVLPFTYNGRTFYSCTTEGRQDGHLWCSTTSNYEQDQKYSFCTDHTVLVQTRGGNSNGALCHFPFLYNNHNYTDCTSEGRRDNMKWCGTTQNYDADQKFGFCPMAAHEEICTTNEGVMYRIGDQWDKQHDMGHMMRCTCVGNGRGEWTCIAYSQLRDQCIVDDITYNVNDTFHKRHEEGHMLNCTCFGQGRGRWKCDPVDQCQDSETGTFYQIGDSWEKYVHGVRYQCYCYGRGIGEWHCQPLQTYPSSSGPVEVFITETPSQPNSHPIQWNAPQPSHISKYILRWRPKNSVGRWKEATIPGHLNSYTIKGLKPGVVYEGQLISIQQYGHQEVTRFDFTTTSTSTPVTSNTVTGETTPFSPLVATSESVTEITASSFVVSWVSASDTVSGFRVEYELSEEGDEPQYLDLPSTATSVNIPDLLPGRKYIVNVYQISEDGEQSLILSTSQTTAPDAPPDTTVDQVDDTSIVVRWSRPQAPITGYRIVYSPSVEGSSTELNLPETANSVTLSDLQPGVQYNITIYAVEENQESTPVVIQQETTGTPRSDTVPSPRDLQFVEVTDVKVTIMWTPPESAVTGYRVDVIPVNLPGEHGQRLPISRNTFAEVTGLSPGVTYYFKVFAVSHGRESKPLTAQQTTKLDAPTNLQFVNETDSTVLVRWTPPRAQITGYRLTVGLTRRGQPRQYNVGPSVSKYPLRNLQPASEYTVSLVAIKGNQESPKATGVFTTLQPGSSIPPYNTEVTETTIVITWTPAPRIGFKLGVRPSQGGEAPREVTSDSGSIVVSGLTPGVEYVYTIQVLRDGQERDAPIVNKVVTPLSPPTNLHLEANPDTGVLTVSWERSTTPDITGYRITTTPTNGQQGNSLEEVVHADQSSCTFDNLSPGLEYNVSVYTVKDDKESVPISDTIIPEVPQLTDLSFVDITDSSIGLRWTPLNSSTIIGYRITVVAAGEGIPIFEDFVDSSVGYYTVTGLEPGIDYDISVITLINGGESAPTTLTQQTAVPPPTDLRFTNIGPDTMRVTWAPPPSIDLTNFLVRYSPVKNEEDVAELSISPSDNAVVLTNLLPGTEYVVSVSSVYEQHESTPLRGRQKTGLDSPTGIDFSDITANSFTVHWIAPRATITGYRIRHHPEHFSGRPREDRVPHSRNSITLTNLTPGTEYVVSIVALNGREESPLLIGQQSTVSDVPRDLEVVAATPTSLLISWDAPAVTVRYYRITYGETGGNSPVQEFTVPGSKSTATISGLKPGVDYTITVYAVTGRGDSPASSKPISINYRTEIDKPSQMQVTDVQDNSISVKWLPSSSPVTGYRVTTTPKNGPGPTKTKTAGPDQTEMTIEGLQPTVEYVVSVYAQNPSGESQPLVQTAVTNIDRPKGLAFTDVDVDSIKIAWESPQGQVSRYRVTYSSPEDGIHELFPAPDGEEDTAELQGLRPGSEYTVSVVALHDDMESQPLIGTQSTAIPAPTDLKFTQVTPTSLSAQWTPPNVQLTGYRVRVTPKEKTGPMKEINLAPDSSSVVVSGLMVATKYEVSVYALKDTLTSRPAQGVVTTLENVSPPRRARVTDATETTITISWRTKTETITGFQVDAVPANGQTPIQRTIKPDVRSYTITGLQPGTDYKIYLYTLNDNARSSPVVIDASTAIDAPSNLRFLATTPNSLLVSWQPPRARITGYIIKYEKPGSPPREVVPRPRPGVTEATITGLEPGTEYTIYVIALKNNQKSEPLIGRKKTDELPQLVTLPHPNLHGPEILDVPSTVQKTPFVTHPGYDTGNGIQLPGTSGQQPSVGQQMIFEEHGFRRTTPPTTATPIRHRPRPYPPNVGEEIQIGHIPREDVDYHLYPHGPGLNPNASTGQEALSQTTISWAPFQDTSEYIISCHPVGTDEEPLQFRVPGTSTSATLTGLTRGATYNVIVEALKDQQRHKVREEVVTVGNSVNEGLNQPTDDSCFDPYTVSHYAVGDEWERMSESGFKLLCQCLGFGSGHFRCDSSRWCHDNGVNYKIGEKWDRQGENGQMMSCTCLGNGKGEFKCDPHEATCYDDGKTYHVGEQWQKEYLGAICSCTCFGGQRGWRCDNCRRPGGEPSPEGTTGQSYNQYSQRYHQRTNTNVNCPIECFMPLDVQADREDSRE

The substance “alpha-enolase (ENOA) from HEK293 conditioned medium (from UniProt P06733 2-434) (enzyme)” had an MASCOT Score (tenascin-C) in [1] of 1040. The same substance returned an MASCOT Score (fibronectin) in test [2] of 701. For the same substance, the spectrum count (fibronectin) in [3] was 26. Moreover, the spectrum count (tenascin-C) in [4] came to 42.
For the substance “Fibronectin from HEK293 conditioned medium (from UniProt P02751 32-2477)”, in test [5], the MASCOT Score (fibronectin) stood at 2210 and the spectrum count (fibronectin) turned out to be 135.
“Phosphoglycerate kinase 1 (from UniProt P00558 2-417) (enzyme)”: the normalized enrichment (spectrum count), tenascin-C against control in test [6] worked out at 3.3 fold. In [7], this substance showed an MASCOT Score (tenascin-C) of 402 and a spectrum count (tenascin-C) of 26. Besides, the normalized enrichment (MRM), tenascin-C against control in test [8] amounted to 1.2 fold.
In test [9], “Peptidyl-prolyl cis-trans isomerase A (PPIA) from HEK293 conditioned medium (from UniProt P62937 2-165) (enzyme)” came in with a spectrum count (tenascin-C) of 56. The same substance registered an MASCOT Score (fibronectin) in test [10] of 676. Moreover, the MASCOT Score (tenascin-C) in [11] came out at 675. The substance also showed a spectrum count (fibronectin) in [12] of 36.
Clusterin (from UniProt P10909 23-449) returned a normalized enrichment (spectrum count), tenascin-C against control in test [6] of 4.2 fold. In test [7], this substance gave an MASCOT Score (tenascin-C) of 258 and a spectrum count (tenascin-C) of 11. Further, the normalized enrichment (MRM), tenascin-C against control in [8] was found to be 2.1 fold.
The corresponding values for Nidogen-2 (from UniProt Q14112 31-1375) are 5.8 fold, 437, 15 and 2.2 fold.
The corresponding values for “Fibronectin from HEK293 conditioned medium, P02751 32-2477” are 19.2 fold, 544, 25 and 4.8 fold.

The values are drawn from patent publication US20130004519A1.
